Measurements published in patent publication US20250290928A1, “METHOD, KIT AND DEVICE FOR DETECTING EXTRACELLULAR VESICLES” (priority 2022, published 2025).
No end group written: not given here. *: point of attachment. 5FAM = O=C1OC2(c3ccc(O)cc3Oc3cc(O)ccc32)c2ccc(C(=O)*)cc21; TQ2 = quencher

Tests used:
[1] = target: T1, MMP14 in the MDA-MB-231-derived extracellular vesicles (Homo sapiens, UniProt P50281); assay: Digital detection of MDA-MB-231-derived extracellular vesicles through MMP14 activity in wells (microcompartments); assay type: biochemical; details: for Extracellular vesicle concentration: at a concentration of x1, 50 fL; for Expected value λ / Number of positives / Positive ratio: Example 38, EV 2.5 μg/mL, reporter 5 μM, 30° C.
T1 construct: in terms of intact MMP14 with a molecular weight of 70 kDa
Protocol: The concentration of the solution is 6.7 μg/mL.
100 μL of the MMP14 detection solution was added to 100 μL of the sample to provide a reaction solution for wells. […] 100 μL of 200 μL of the prepared reaction solution for wells was used in the measurement of MMP14 activity with a 96-well plate.
Next, the wells were filled with the reaction solution by leaving the well array 200 to stand under reduced pressure to degas the space 205. After that, the space 205 was fed with hydrophobic solvents to be sealed. Fluorinated oils AsahiKlin AE-3000 (manufactured by AGC Inc.) and Fomblin Y-25 (manufactured by Solvay S.A.) were used as the hydrophobic solvents. A fluorinated oil Simoa (trademark) SR-X Sealing Oil: 102767 (manufactured by Quanterix Corporation) was further used as another hydrophobic solvent.
Well diameter: 4.25 μm Well depth: 3.25 μm Well capacity: 50 fL Number of wells in array: 239,000 Array range: 3 mm×4 mm
The concentration of the solution is 20 μg/mL. […] The concentration of the solution was set to x1, and 10-fold serial dilution was performed to prepare standard samples with five concentrations.
Next, the wells were filled with the reaction solution by leaving the well array 200 to stand under reduced pressure to degas the space 205. After that, the space 205 was fed with hydrophobic solvents to be sealed.
The concentration of the solution is 20 μg/mL. […] The concentration of the solution was set to x1, and 3-fold serial dilution was performed to prepare standard samples with three concentrations.
The concentration of the solution is 20 μg/mL. […] The concentration of the solution was set to x1, and 2-fold serial dilution was performed to prepare standard samples with four concentrations.
The concentration of the solution is 5 μg/mL.
50 μL of the MMP14 detection solution was added to 50 μL of the sample to provide a reaction solution for wells.
50 μL of each of the MMP14 detection solutions was added to 50 μL of the sample to provide a reaction solution for wells.
The concentration of the solution is 6.7 µg/mL.

[2] = target: T1, MMP14 in the MDA-MB-231-derived extracellular vesicles; assay: Evaluation of MMP14 activity of MDA-MB-231-derived extracellular vesicles with 96-well plate; assay type: biochemical
Protocol: A relative fluorescence unit difference ΔRFU was calculated by subtracting the measured value of the sample for BG measurement from the measured value of each of the samples.
The concentration of the solution is 41.7 μg/mL. The concentration of the solution was set to x1, and 2-fold serial dilution was performed to prepare standard samples with six concentrations.
50 μL of the MMP14 detection solution was added to 50 μL of each of the samples, a reaction was performed at 37° C., and MMP14 activity was evaluated.
The concentration of the solution is 10 μg/mL.
50 μL of each of the MMP14 detection solutions was added to 50 μL of each of the samples, a reaction was performed at 37° C., and MMP14 activity was evaluated. […]
The concentration of the solution is 20 μg/mL. The concentration of the solution was set to x1, and 3-fold serial dilution was performed to prepare standard samples with three concentrations.
The concentration of the solution is 8 μg/mL.
50 μL of each of the MMP14 detection solutions was added to 50 μL of the sample, a reaction was performed at 37° C., and MMP14 activity was evaluated. […]
50 μL of the MMP14 detection solution was added to 50 μL of each of the samples, a reaction was performed at 30° C., and MMP14 activity was evaluated.
The MMP14 activity of the extracellular vesicles was evaluated with a 96-well plate (137101). A fluorescence intensity was measured with a fluorescence plate reader (Synergy) at 30° C. every 5 minutes for 2 hours. For measurement wavelengths, an excitation wavelength of 545±20 nm and a fluorescence wavelength of 588±20 nm were used. A relative fluorescence unit difference (ΔRFU) was calculated by subtracting the measured value of the sample for BG measurement from the measured value of each of the samples.
50 μL of each of the MMP14 detection solutions was added to 50 μL of each of the samples, a reaction was performed at 30° C., and MMP14 activity was evaluated.

[3] = Example 37, EV 5 μg/mL, reporter 5 μM, buffer (4)
[4] = MP, 1.25 μM with 5 μM Custom #2TF3
[5] = MP, 2.5 μM with 2.5 μM Custom #2TF3

TQ2-WYPAGLRMVK(5-FAM) (TQ2-WYPAGLRMVK(5FAM)) [Custom #13]
Expected value λ (×1) ([1]; Example 38, 4 hr): 0.5455
Extracellular vesicle concentration ([1]; Example 38, 4 hr): 1.091e+10 mL⁻¹
Expected value λ (×1) ([1]; Example 38, 24 hr): 1.05
Extracellular vesicle concentration ([1]; Example 38, 24 hr): 2.101e+10 mL⁻¹
Expected value λ ([1]; 4 hr): 0.1364
Number of positives ([1]; 4 hr): 3,573
Positive ratio ([1]; 4 hr): 0.1275
Expected value λ ([1]; 24 hr): 0.2626
Number of positives ([1]; 24 hr): 6,485
Positive ratio ([1]; 24 hr): 0.2309
Fluorescence change after 2 hours of reaction at 30° C. [2, 3]: 19,279 ΔRFU
Fluorescence change after 2 hours of reaction at 30° C. [2, 4]: 7,073 ΔRFU
Fluorescence change after 2 hours of reaction at 30° C. [2, 5]: 9,939 ΔRFU

TQ2-YPPRPLLARK(5-FAM) (TQ2-YPPRPLLARK(5FAM)) [Custom #15]
Expected value λ (×1) ([1]; Example 38, 4 hr): 0.4993
Extracellular vesicle concentration ([1]; Example 38, 4 hr): 9.986e+09 mL⁻¹
Expected value λ (×1) ([1]; Example 38, 24 hr): 1.145
Extracellular vesicle concentration ([1]; Example 38, 24 hr): 2.289e+10 mL⁻¹
Expected value λ ([1]; 4 hr): 0.1248
Number of positives ([1]; 4 hr): 3,295
Positive ratio ([1]; 4 hr): 0.1173
Expected value λ ([1]; 24 hr): 0.2862
Number of positives ([1]; 24 hr): 6,988
Positive ratio ([1]; 24 hr): 0.2489
Fluorescence change after 2 hours of reaction at 30° C. [2, 3]: 16,774 ΔRFU
Fluorescence change after 2 hours of reaction at 30° C. [2, 4]: 9,131 ΔRFU
Fluorescence change after 2 hours of reaction at 30° C. [2, 5]: 10,890 ΔRFU
